Reference: publication PMC6378094

B1: ASPase E (Leunase) (Escherichia coli K-12) (protein)
chain: LPNITILATGGTIAGGGDSATKSNYTVGKVGVENLVNAVPQLKDIANVKGEQVVNIGSQDMNDNVWLTLAKKINTDCDKTDGFVITHGTDTMEETAYFLDLTVKCDKPVVMVGAMRPSTSMSADGPFNLYNAVVTAADKASANRGVLVVMNDTVLDGRDVTKTNTTDVATFKSVNYGPLGYIHNGKIDYQRTPARKHTSDTPFDVSKLNELPKVGIVYNYANASDLPAKALVDAGYDGIVSAGVGNGNLYKSVFDTLATAAKTGTAVVRSSRVPTGATTQDAEVDDAKYGFVASGTLNPQKARVLLQLALTQTKDPQQIQQIFNQY
B2: ASPase A1 (Bacillus licheniformis) (protein)
chain: MNKKVALITTGGTIASRKTESGRLAAGAISGPELAEMCSLPEDVQIDVYPAFQLPSMHITFEHLLELKQTIERVFQNGGYDGAVVTHGTDTLEETAYFLDLTIEDERPVVVTGSQRAPEQQGTDAYTNIRHAVYTACSPDIKGAGTVVVFNERIFNARYVKKVHASNLQGFDVFGFGYLGIIDNDKVYVYQKPLKRDVHQLQRPLPAVDIVKCYLDGDGKFIRAAVREGVEGIVLEGVGRGQVPPNMMADIEQALNQGVYIVITTSAEEGEVYTTYDYAGSSYDLAKKGVILGKDYDSKKARMKLAVLLASYKEGLKDKFCY

Substrate: NC(=O)C[C@H](N)C(=O)O
Assay: purified protein
Details: 50 mM Tris-HCl, pH 8.6, 37 °C

Protein	Km	kcat	kcat/Km
B1	5.788 µM	7.73 s⁻¹	1.34e+06 M⁻¹ s⁻¹
B2	10.30 µM	24 s⁻¹	2.33e+06 M⁻¹ s⁻¹
